In publication PMC9413769:

Biological target: eGFP-Unr (UniProt O75534)
Assay: FRET or BRET

Chain of UniProt O75534 (O75534 whole entry): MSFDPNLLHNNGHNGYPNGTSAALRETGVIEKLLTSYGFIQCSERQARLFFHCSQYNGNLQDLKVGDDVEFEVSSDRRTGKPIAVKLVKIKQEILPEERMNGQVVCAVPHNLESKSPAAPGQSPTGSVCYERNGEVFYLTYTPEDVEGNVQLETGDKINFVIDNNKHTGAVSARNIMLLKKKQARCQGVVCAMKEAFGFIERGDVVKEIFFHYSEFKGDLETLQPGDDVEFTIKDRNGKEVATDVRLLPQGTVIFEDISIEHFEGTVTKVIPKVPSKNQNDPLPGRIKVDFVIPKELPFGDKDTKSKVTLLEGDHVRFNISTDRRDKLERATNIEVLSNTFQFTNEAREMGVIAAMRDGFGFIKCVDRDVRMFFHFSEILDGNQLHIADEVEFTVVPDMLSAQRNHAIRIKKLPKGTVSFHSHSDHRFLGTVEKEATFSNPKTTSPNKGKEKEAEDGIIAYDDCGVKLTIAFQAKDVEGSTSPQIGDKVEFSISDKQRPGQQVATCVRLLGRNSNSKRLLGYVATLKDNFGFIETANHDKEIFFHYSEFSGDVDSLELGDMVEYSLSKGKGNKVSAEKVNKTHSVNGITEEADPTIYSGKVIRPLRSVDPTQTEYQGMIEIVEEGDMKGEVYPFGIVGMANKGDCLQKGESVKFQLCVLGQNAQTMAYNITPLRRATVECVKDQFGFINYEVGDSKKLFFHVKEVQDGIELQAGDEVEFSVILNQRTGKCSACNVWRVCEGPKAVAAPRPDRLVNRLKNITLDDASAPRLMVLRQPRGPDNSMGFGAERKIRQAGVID

Substance | FRET efficiency (one-population analysis) | FRET efficiency of the interacting population (two-population analysis) | percent of eGFP-Unr interacting (two-population analysis) | average FRET efficiency (one-population analysis)
GagG2A-mCherry (natural protein) | 7.5% | 46% | 25% | –
NCp7-mCherry (natural protein) | – | > 35% | 21% | 5.1%
mCherry-NCp7 (natural protein) | – | > 35% | 26% | 6.8%
